# Source: PMC11347169
# Columns and labels:
# [1] = target: Simian virus 40 large T antigen (L-Tag) (simian virus 40) (UniProt P03070)
# [2] = target: Human wild-type DNA polymerase δ (WT Pol δ) (human) (UniProt P28340)
# [3] = target: Human wild-type DNA polymerase δ (WT Pol δ) (human) (UniProt P28340); experiment: MST; His6-tagged Pol δ labelled with RED-Tris-NTA, 20 nM final; L-Tag titrated in 16 concentrations beginning with 500 nM; PBS-T buffer; incubated 40 min at 37°C; Monolith NT.115, premium-coated capillaries
substance,measurement,setting,value
Human mini-chromosome maintenance protein 10 (Mcm10) (from UniProt Q7L590 1-875) (natural protein),"saturation concentration of Mcm10 for stimulating L-Tag unwinding in the bulk assay (25 nM L-Tag, 0.5 nM forked DNA)",[1],< 8 nM
"Human fork protection complex (FPC): Claspin, TIMELESS, Tipin (from UniProt Q9HAW4 1-1339; Q9UNS1 1-1208; Q9BVW5 1-301)","saturation concentration of FPC for stimulating L-Tag unwinding in the bulk assay (25 nM L-Tag, 0.5 nM forked DNA)",[1],< 8 nM
Simian virus 40 large T antigen (L-Tag) (from UniProt P03070 1-708) (enzyme),lifetime of Pol δ–PCNA on DNA in single-molecule flow-stretching assays: primer extension alone against leading-strand synthesis with L-Tag,[2],3 min
same,Kd,[3],6.7 nM
